Biological target: Carcinoembryonic antigen (CEA) (UniProt P06731 35-685)
Assay: electrochemical aptasensor (CV, DPV); immobilized aptamer; current falls with CEA; LOD 7.6 ng/mL (not a Kd); 0.05 M PBS pH 7.0, 0.1 M KCl, 5 mM [Fe(CN)6]3-/4-; temperature not stated

Carcinoembryonic antigen (CEA), sequence (P06731 35-685): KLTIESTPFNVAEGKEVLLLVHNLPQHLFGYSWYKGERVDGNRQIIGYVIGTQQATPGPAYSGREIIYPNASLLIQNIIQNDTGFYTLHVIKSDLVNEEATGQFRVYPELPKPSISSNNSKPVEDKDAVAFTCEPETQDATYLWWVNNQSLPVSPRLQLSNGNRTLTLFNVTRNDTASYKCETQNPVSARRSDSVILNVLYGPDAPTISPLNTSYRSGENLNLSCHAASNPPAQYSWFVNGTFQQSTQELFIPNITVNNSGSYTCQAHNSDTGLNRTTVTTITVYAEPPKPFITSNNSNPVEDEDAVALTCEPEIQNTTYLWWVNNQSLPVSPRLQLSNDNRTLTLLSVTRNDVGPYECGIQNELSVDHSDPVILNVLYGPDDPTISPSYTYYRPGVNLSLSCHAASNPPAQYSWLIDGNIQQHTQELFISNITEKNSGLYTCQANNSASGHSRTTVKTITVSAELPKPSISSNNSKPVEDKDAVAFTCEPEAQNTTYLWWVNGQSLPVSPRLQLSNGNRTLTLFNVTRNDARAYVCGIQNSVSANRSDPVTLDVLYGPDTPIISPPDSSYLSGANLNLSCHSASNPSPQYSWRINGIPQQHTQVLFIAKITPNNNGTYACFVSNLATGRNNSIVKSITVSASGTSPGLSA

B1: CEA aptamer (ssDNA)
DNA: GTGACGCTCCTAACGCTGACTCAGGTGCAGTTCTCGACTCGGTCTTGATGTGGGTCCTGTCCGTCCGAACCAATC
modifications: 5'-NH2
Does B1 bind?
Result: binds

Reference: paper PMC12921616, “Flower-like Silver Bismuth Sulfide/Carbon Nanosphere Nanocomposite for Sensitive Electrochemical Tumor Marker Sensing”
